Consider 2 variants from paper PMC5175334.

B1: full-length wild-type TRBP (TRBP-WT), lentivirally expressed in HDLECs [human] / S6K2 (S6 kinase 2), endogenous [human (endogenous in HDLEC)] (parent)
chain 1: MSEEEQGSGTTTGCGLPSIEQMLAANPGKTPISLLQEYGTRIGKTPVYDLLKAEGQAHQPNFTFRVTVGDTSCTGQGPSKKAAKHKAAEVALKHLKGGSMLEPALEDSSSFSPLDSSLPEDIPVFTAAAAATPVPSVVLTRSPPMELQPPVSPQQSECNPVGALQELVVQKGWRLPEYTVTQESGPAHRKEFTMTCRVERFIEIGSGTSKKLAKRNAAAKMLLRVHTVPLDARDGNEVEPDDDHFSIGVGSRLDGLRNRGPGCTWDSLRNSVGEKILSLRSCSLGSLGALGPACCRVLSELSEEQAFHVSYLDIEELSLSGLCQCLVELSTQPATVCHGSATTREAARGEAARRALQYLKIMAGSK
chain 2: MAAVFDLDLETEEGSEGEGEPELSPADACPLAELRAAGLEPVGHYEEVELTETSVNVGPERIGPHCFELLRVLGKGGYGKVFQVRKVQGTNLGKIYAMKVLRKAKIVRNAKDTAHTRAERNILESVKHPFIVELAYAFQTGGKLYLILECLSGGELFTHLEREGIFLEDTACFYLAEITLALGHLHSQGIIYRDLKPENIMLSSQGHIKLTDFGLCKESIHEGAVTHTFCGTIEYMAPEILVRSGHNRAVDWWSLGALMYDMLTGSPPFTAENRKKTMDKIIRGKLALPPYLTPDARDLVKKFLKRNPSQRIGGGPGDAADVQRHPFFRHMNWDDLLAWRVDPPFRPCLQSEEDVSQFDTRFTRQTPVDSPDDTALSESANQAFLGFTYVAPSVLDSIKEGFSFQPKLRSPRRLNSSPRAPVSPLKFSPFEGFRPSPSLPEPTELPLPPLLPPPPPSTTAPLPIRPPSGTKKSKRGRGRPGR

The variants in the first experiment derive from B1. Nature of the experiment: proximity ligation assay (PLA) in cells. The note with it: with S6K2 (S6 kinase 2), HDLECs transduced with TRBP-AA lentivirus (600 ml/80 000 cells), endogenous TRBP also present, parent: 31, read off a plot.
For chain 1 S283A S286A, the response (PLA events per HDLEC) stood at 20.

Still in this experiment, the particulars now being: with S6K2 (S6 kinase 2), HDLECs transduced with TRBP-DD lentivirus (200 ml/80 000 cells), endogenous TRBP also present, parent: 31, read off a plot.
In the case of chain 1 S283D S286D, the response (PLA events per HDLEC) turned out to be 7.

Variants of B1 are the subject of the next experiment. Nature of the experiment: co-immunoprecipitation, band quantification. As to conditions: with S6K2, lentivirally over-expressed in HEK293 cells; HEK293 cells over-expressing S6K2 and TRBP-WT or TRBP-DD; parent: 1; read off a plot.
For the variant chain 1 S283D S286D, the ratio to parent turned out to be 0.16.
